This is an account of results in article PMC9363427, “The SWI/SNF chromatin remodeling factor DPF3 regulates metastasis of ccRCC by modulating TGF-β signaling” (Nature Communications, 2022).

B1: Recombinant full-length DPF3a, GST tag removed (natural protein, human, UniProt Q92784-2 1-357, looked up)
chain: MATVIHNPLKALGDQFYKEAIEHCRSYNSRLCAERSVRLPFLDSQTGVAQNNCYIWMEKRHRGPGLAPGQLYTYPARCWRKKRRLHPPEDPKLRLLEIKPEVELPLKKDGFTSESTTLEALLRGEGVEKKVDAREEESIQEIQRVLENDENVEEGNEEEDLEEDIPKRKNRTRGRARGSAGGRRRHDAASQEDHDKPYVCDICGKRYKNRPGLSYHYAHTHLASEEGDEAQDQETRSPPNHRNENHRPQKGPDGTVIPNNYCDFCLGGSNMNKKSGRPEELVSCADCGRSAHLGGEGRKEKEAAAAARTTEDLFGSTSESDTSTFHGFDEDDLEEPRSCRGRRSGRGSPTADKKGSC
notes: Zinc finger protein DPF3, isoform DPF3a, cDNA subcloned into pGEX-6P-1; Expressed with 0.1 mM ZnSO4; also called DPF3a-FL; full-length DPF3a proteins; source: E. coli BL21 (DE3)-RIL, purified (Glutathione Sepharose 4B, 3C protease, Superdex 200)

Assay [1] deals with T1, GST-tagged full-length SNIP1 (recombinant) (human, UniProt Q8TAD8 1-396).
T1 construct: also called SNIP1-FL; source: E. coli BL21 (DE3)-RIL, purified (Glutathione Sepharose 4B, Superdex 200)
T1 sequence (looked up): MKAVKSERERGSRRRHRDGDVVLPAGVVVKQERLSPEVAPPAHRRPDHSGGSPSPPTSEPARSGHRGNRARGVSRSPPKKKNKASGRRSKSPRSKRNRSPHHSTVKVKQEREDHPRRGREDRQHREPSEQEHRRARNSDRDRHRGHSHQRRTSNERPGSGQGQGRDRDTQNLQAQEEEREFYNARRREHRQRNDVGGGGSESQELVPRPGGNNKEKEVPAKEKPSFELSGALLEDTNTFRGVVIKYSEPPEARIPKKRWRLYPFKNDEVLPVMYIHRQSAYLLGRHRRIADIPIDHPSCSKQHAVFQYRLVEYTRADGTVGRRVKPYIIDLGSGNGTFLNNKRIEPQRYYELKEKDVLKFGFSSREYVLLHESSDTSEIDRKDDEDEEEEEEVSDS
The assay can be described thus: pull-down; 1.5 nmol GST-tagged DPF3a or SNIP1 construct on Glutathione Sepharose 4B beads, 2 nmol SNIP1 1-240 or full-length DPF3a added, 4 °C 2 h; 20 mM Tris pH 7.5, 100 mM NaCl, 5 mM β-mercaptomethanol; washes with 0.5% Triton X-100; SDS-PAGE. To be noted: both partners purified.

Assay [2] deals with B1. The description is as above. The settings on record: both partners purified.

Regarding B1, the binding result in assay [1] is listed as “binds”.

B2: GST-tagged SNIP1 N-terminus (1-240) (recombinant) (domain or fragment, human, UniProt Q8TAD8 1-240, looked up)
chain: MKAVKSERERGSRRRHRDGDVVLPAGVVVKQERLSPEVAPPAHRRPDHSGGSPSPPTSEPARSGHRGNRARGVSRSPPKKKNKASGRRSKSPRSKRNRSPHHSTVKVKQEREDHPRRGREDRQHREPSEQEHRRARNSDRDRHRGHSHQRRTSNERPGSGQGQGRDRDTQNLQAQEEEREFYNARRREHRQRNDVGGGGSESQELVPRPGGNNKEKEVPAKEKPSFELSGALLEDTNTFR
notes: also called SNIP1-IDR; source: E. coli BL21 (DE3)-RIL, purified (Glutathione Sepharose 4B, Superdex 200)
In the case of B2, the binding result in assay [2] is given as “binds”.
